Test results taken from the supplement of paper PMC10126150.
± gives the standard deviation of the averaged measurements.
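Also: ATP exposure 15 min at 22 °C before imaging.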

These sequences were tested on ATP (assay: switch fluorescence ratio, 500 uM ATP over buffer (Cy3 cluster intensity, sum of 5 cycles each) (fold (ratio)); higher = stronger signal-on switching upon ATP binding; sequences stand for … in TCGTCGGCAGCGTCAGATGTGTATAAGAGACAGTTTTTTTTTTTTTTTTTTTTTTTTT…TC). Conditions: aptamer strand: ATP DNA aptamer (quencher-CACCTGGGGGAGTATTGCGGAGGAAGG + anchor), 100 nM annealed; ATP concentration: 500 uM.
Summary of the method: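 Clusters carrying Cy3-labelled switching strands on a modified Illumina MiSeq flow-cell were annealed to 100 nM quencher-labelled ATP aptamer and imaged in selection buffer. They were imaged again after 15 min with 500 uM ATP at 22 °C, over five buffer/ATP cycles with NaOH stripping and re-annealing in between. For each cluster, the fluorescence ratio is the summed Cy3 intensity of the target cycles divided by that of the buffer cycles, averaged per switch-domain sequence. Clusters outside 100-1000 RFU were left out.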
Work on GGCGGATCGA yielded a switch fluorescence ratio of 0.998 ± 0.063. TTCGTTATCT was tested, and the switch fluorescence ratio was 0.981 ± 0.015. TCGTTGAGGC showed a switch fluorescence ratio of 1.037 ± 0.0072. AAGTGGAAAT was tested, and the switch fluorescence ratio was 0.9962 ± 0.0019. In the case of CGGCGCTTCA, the switch fluorescence ratio is reported as 1.063 ± 0.0061. AATTTTAGCC was tested, and the switch fluorescence ratio was 0.987 ± 0.011. With TAAGGGGGTT the switch fluorescence ratio was 1.01 ± 0.036. Work on GGTGGTTGCA yielded a switch fluorescence ratio of 1 ± 0.024. For GCGAGAATGT, the switch fluorescence ratio was 0.9879 ± 0.0039. In the case of TAATGGATCG, the switch fluorescence ratio is reported as 1 ± 0.044. AGTTTTAGTA was tested, and the switch fluorescence ratio was 0.974 ± 0.03. For AGGTTTGGAC, the switch fluorescence ratio was 1.09 ± 0.17. With GATTTTTTGG the switch fluorescence ratio was 0.991 ± 0.034. Sequence TAGGATTCGA has a switch fluorescence ratio of 0.964 ± 0.016. With TGCCGGTTGC the switch fluorescence ratio was 0.99 ± 0.12. TTACGCAACC was tested, and the switch fluorescence ratio was 2.91 ± 0.58. TAAGGACGGA was tested, and the switch fluorescence ratio was 1.01 ± 0.071. CTATACAGCA gave a switch fluorescence ratio of 1.06 ± 0.044. AAAAGTGACT was tested, and the switch fluorescence ratio was 0.982 ± 0.049. For AGAGGGGGAA, the switch fluorescence ratio was 0.978 ± 0.014. In the case of AATTTACGAA, the switch fluorescence ratio is reported as 1.01 ± 0.019. In the case of CAGTTTAGTT, the switch fluorescence ratio is reported as 0.987 ± 0.072. TGTGGGGCAG was tested, and the switch fluorescence ratio was 0.968 ± 0.03. AGGGGTTGGC gave a switch fluorescence ratio of 0.958 ± 0.056. Sequence AGGGCGCGCT has a switch fluorescence ratio of 1.01 ± 0.034. Sequence TTGGACTAGT has a switch fluorescence ratio of 1.018 ± 0.0023. With GGGGGGTCCT the switch fluorescence ratio was 1 ± 0.018. TTCTTCATTT gave a switch fluorescence ratio of 1.22 ± 0.26. Work on AGAACTTTTT yielded a switch fluorescence ratio of 0.98 ± 0.011. AGGCTTTCAG was tested, and the switch fluorescence ratio was 0.9828 ± 0.0011. Work on AATTGTGGCT yielded a switch fluorescence ratio of 1 ± 0.025. Sequence GGGTTGGTTG has a switch fluorescence ratio of 0.9929 ± 0.0052. For TTAGCTTTGA, the switch fluorescence ratio was 0.992 ± 0.022. In the case of AGGGCCCTCG, the switch fluorescence ratio is reported as 0.9898 ± 0.0036. CGAAGTTTGC was tested, and the switch fluorescence ratio was 1.23 ± 0.33. For TAGGTGGGGA, the switch fluorescence ratio was 1.01 ± 0.023. For GAGGGATTCG, the switch fluorescence ratio was 1.01 ± 0.014. For AACCGGATTC, the switch fluorescence ratio was 1 ± 0.02. CGGGTTGTCG showed a switch fluorescence ratio of 1.02 ± 0.05. ATGTTGGGCT was tested, and the switch fluorescence ratio was 0.962 ± 0.018. TGCGGGATTA was tested, and the switch fluorescence ratio was 1.1 ± 0.18. Sequence CGCTGGGGGT has a switch fluorescence ratio of 1.16 ± 0.2. Sequence TCGGGGTACG has a switch fluorescence ratio of 1.01 ± 0.015. TCGGGCCGG showed a switch fluorescence ratio of 0.994 ± 0.023. Work on AAAACGGGAA yielded a switch fluorescence ratio of 1.02 ± 0.018. With GGCTTCGGGA the switch fluorescence ratio was 1.01 ± 0.054. Work on TTATTATAAT yielded a switch fluorescence ratio of 0.982 ± 0.021. In the case of CTGGAAGGGT, the switch fluorescence ratio is reported as 1 ± 0.03. Sequence TGTGTGTGGT has a switch fluorescence ratio of 1.006 ± 0.0062. Sequence TTCCCGATGT has a switch fluorescence ratio of 1.02 ± 0.0059. With GGGGCCATGG the switch fluorescence ratio was 0.9123 ± 0.006. With TTTGGGCAGC the switch fluorescence ratio was 1.083 ± 0.0087. Work on TGCTTACCCA yielded a switch fluorescence ratio of 1.03 ± 0.017. GGCTGGCGGC gave a switch fluorescence ratio of 0.984 ± 0.026. GCATTAAGAC was tested, and the switch fluorescence ratio was 1.23 ± 0.091. For TTTAAACAA, the switch fluorescence ratio was 1 ± 0.032. For AGAATCCGGG, the switch fluorescence ratio was 0.97 ± 0.041. ATTGGAATGC showed a switch fluorescence ratio of 1.26 ± 0.047. TTTCCTATAT showed a switch fluorescence ratio of 1.08 ± 0.078. Work on TCATGCACTG yielded a switch fluorescence ratio of 1.05 ± 0.035. In the case of GACACCACAG, the switch fluorescence ratio is reported as 1.162 ± 0.0035. TTCTCGTCAA showed a switch fluorescence ratio of 5.06 ± 0.96. AGGCAGCTAT gave a switch fluorescence ratio of 1.05 ± 0.038. CAGCCCGATC showed a switch fluorescence ratio of 1.22 ± 0.032. GAACTATGTA showed a switch fluorescence ratio of 1.038 ± 0.01. With GTCTAAAATC the switch fluorescence ratio was 0.978 ± 0.038. Sequence TAAGTGGTT has a switch fluorescence ratio of 0.994 ± 0.011. In the case of ACTTATCCTT, the switch fluorescence ratio is reported as 1.0512 ± 0.00011. AGGTTCGGCG showed a switch fluorescence ratio of 1 ± 0.015. ATTGCATTTT showed a switch fluorescence ratio of 1.28 ± 0.43. Work on GGGTGTAGGA yielded a switch fluorescence ratio of 1.03 ± 0.065. With ACATCGGGGG the switch fluorescence ratio was 1.013 ± 0.0089. GTTCGGCGAT gave a switch fluorescence ratio of 1.03 ± 0.013. For GGTATAGCGC, the switch fluorescence ratio was 1.01 ± 0.051. Sequence GGGAAAATAT has a switch fluorescence ratio of 0.999 ± 0.063. In the case of TAAATTTTCA, the switch fluorescence ratio is reported as 1.03 ± 0.031. In the case of CATTAGTCTC, the switch fluorescence ratio is reported as 1.02 ± 0.053. Sequence AAGTTTATGC has a switch fluorescence ratio of 0.977 ± 0.025. For GTAAGGGGGG, the switch fluorescence ratio was 0.994 ± 0.028. CTATTCCTGT was tested, and the switch fluorescence ratio was 0.995 ± 0.014. CGGTAACCTT was tested, and the switch fluorescence ratio was 1.31 ± 0.44. GTAGCTCTTA showed a switch fluorescence ratio of 1.04 ± 0.019. In the case of GTTATCAGAG, the switch fluorescence ratio is reported as 0.977 ± 0.021. In the case of TTGGGACTAC, the switch fluorescence ratio is reported as 1.02 ± 0.036. Work on GCGGTATAC yielded a switch fluorescence ratio of 2.72 ± 0.14. GATCGAGGTC was tested, and the switch fluorescence ratio was 1.0474 ± 0.001. ATTTGGGT was tested, and the switch fluorescence ratio was 0.999 ± 0.021. Work on CTGAGTGGC yielded a switch fluorescence ratio of 0.9639 ± 0.0063. For CAGGGCAAGC, the switch fluorescence ratio was 1.36 ± 0.057. Sequence TCATAGAGG has a switch fluorescence ratio of 0.9822 ± 0.0058. With GTGATGGTTT the switch fluorescence ratio was 0.982 ± 0.013. GGAAGAGGTG showed a switch fluorescence ratio of 1.09 ± 0.022. AAAATGGAAG showed a switch fluorescence ratio of 0.9997 ± 0.0056. For ACGGGGAAAA, the switch fluorescence ratio was 1.03 ± 0.036. CGGGGTCGGT was tested, and the switch fluorescence ratio was 0.963 ± 0.021. With GGGGTTAAGA the switch fluorescence ratio was 1.01 ± 0.08. Work on AACGACACAT yielded a switch fluorescence ratio of 1.46 ± 0.014. TTAAATGGTG gave a switch fluorescence ratio of 1.05 ± 0.072. For TTTAGAAAGG, the switch fluorescence ratio was 1 ± 0.025. TACAAAGATG showed a switch fluorescence ratio of 1.025 ± 0.0056. TACCATTTGT showed a switch fluorescence ratio of 1 ± 0.044. Sequence AGCATGTAGA has a switch fluorescence ratio of 0.989 ± 0.046. TTGCTTCCAC was tested, and the switch fluorescence ratio was 1.08 ± 0.032. ACCTGGTCTC showed a switch fluorescence ratio of 1.07 ± 0.027. TGATTCCATT gave a switch fluorescence ratio of 0.9991 ± 0.0052. Work on TTATAGGTTA yielded a switch fluorescence ratio of 1.02 ± 0.015. For GATCTCCGGC, the switch fluorescence ratio was 1.63 ± 0.063. Sequence TTAGCATGAT has a switch fluorescence ratio of 1.14 ± 0.2. Work on TAGGAGAGTT yielded a switch fluorescence ratio of 0.994 ± 0.036. Sequence AGGAAGGGGC has a switch fluorescence ratio of 0.96 ± 0.018. Sequence GACGTAGACA has a switch fluorescence ratio of 1.042 ± 0.01. Sequence GTGTTCGGTA has a switch fluorescence ratio of 0.9704 ± 0.0062. ATGGGGCGTG showed a switch fluorescence ratio of 0.974 ± 0.016. With GCAGGTTCAG the switch fluorescence ratio was 0.975 ± 0.021. With GCTATTGTTT the switch fluorescence ratio was 0.9633 ± 0.0082. GTAAAAATTG was tested, and the switch fluorescence ratio was 0.986 ± 0.028. Sequence ACGGGGGGTA has a switch fluorescence ratio of 1.02 ± 0.035. Sequence CGGTGTACTG has a switch fluorescence ratio of 0.992 ± 0.013. Sequence GCAACCCGGA has a switch fluorescence ratio of 1.01 ± 0.012. With GGGTTGGATT the switch fluorescence ratio was 0.991 ± 0.023. With CATGGGAGGG the switch fluorescence ratio was 1.01 ± 0.029. CGGCGGAACG showed a switch fluorescence ratio of 0.966 ± 0.031. For TTACGCCGTT, the switch fluorescence ratio was 0.9446 ± 0.0049. Sequence ATATTTTCGC has a switch fluorescence ratio of 1.04 ± 0.03. CGGGATAATC gave a switch fluorescence ratio of 1.07 ± 0.052. Work on AATTCTGAGG yielded a switch fluorescence ratio of 0.977 ± 0.025. TAATCAGGGG showed a switch fluorescence ratio of 1.07 ± 0.16. In the case of CGACCGGGGA, the switch fluorescence ratio is reported as 1.04 ± 0.011. TAGGTGGGTT gave a switch fluorescence ratio of 0.982 ± 0.041. TGCTTTAAGT showed a switch fluorescence ratio of 0.9912 ± 0.0029. CCTTTTCGCG was tested, and the switch fluorescence ratio was 1.106 ± 0.0051. AAAGGAGGGA was tested, and the switch fluorescence ratio was 1.01 ± 0.035. Work on AAAACCCGA yielded a switch fluorescence ratio of 1.01 ± 0.051. Work on TTTGGGGCTT yielded a switch fluorescence ratio of 1 ± 0.04. Sequence TAAAAGGGTG has a switch fluorescence ratio of 0.977 ± 0.033. In the case of CACGAGCGTT, the switch fluorescence ratio is reported as 1.011 ± 0.0049. TAATTTTTGT was tested, and the switch fluorescence ratio was 0.993 ± 0.026. With AAGTGGTACA the switch fluorescence ratio was 0.968 ± 0.049. Sequence TAACTGACGG has a switch fluorescence ratio of 1.268 ± 0.012. TCTCAGGGGA was tested, and the switch fluorescence ratio was 1.16 ± 0.11. TTTAGGGTGG gave a switch fluorescence ratio of 1.01 ± 0.012. Work on TCTGAATGG yielded a switch fluorescence ratio of 1.01 ± 0.033. TTCAGTATTT showed a switch fluorescence ratio of 1.08 ± 0.09. Sequence TTATCCAGGC has a switch fluorescence ratio of 1.02 ± 0.12. In the case of TTTGCAGGGC, the switch fluorescence ratio is reported as 1.05 ± 0.012. TACCTGGGTC gave a switch fluorescence ratio of 0.996 ± 0.028. Sequence TTACGCTATT has a switch fluorescence ratio of 3.4 ± 2.4. TATTGGGCGG gave a switch fluorescence ratio of 1.01 ± 0.045. ACCCGCTCTT gave a switch fluorescence ratio of 1.13 ± 0.022. AGTACGATAT gave a switch fluorescence ratio of 1.14 ± 0.025. GTAAGGAAGG gave a switch fluorescence ratio of 0.989 ± 0.012. Sequence CGTGTGTACA has a switch fluorescence ratio of 0.98 ± 0.01. For GAGGAGCTCG, the switch fluorescence ratio was 0.9522 ± 0.0045. Sequence ACTATGATAT has a switch fluorescence ratio of 1.018 ± 0.0073. Sequence GTCGGTAGGT has a switch fluorescence ratio of 1 ± 0.032. Work on CGGATCGTGG yielded a switch fluorescence ratio of 0.987 ± 0.021. GGGAGAACG was tested, and the switch fluorescence ratio was 0.98 ± 0.017.
